Measured values published in US20250101120A1 (BEIJING SOLOBIO GENETECHNOLOGY, published 2025).

B1: humFL-M88-4 (antibody, human IgG4, V domains shown)
VH: QVQLVQSGAEVKKPGASVKVSCKGSGYTFTDYTIHWVRQAPGQGLEWMGVISTYQGDASYNQKFKGRVTMTVDKSTSTAYMELSSLRSEDTAVYYCARFPDWDYAMDYWGQGTLVTVSS
VL: EIVMTQSPATLSVSPGERATLSCKASQSVDYDGDSYMNWYQQKPGQPPRLLIYAASNLESGIPARFSGSGSGTEFTLTISSLQSEDFAVYYCQHSRELPYTFGQGTKLEIK
notes: Humanized FL-M88
B2: humFL-M88-11 (antibody, human IgG4, V domains shown)
VH: QVQLVQSGAEVKKPGASVKVSCKGSGYTFTDYTIHWVRQAPGQGLEWMGVISTYQGDASYNQKFKGRVTMTVDKSTSTVYMELSSLRSEDTAVYYCARFPDWDYAMDYWGQGTLVTVSS
VL: EIVMTQSPATLSVSPGERATLSCKASQSVDYDGDSYMNWYQQKPGQAPRLLIYAASNLESGIPARFSGSGSGTEFTLTISSLQSEDFAVYYCQHSRELPYTFGQGTKLEIK
notes: Humanized FL-M88
B3: humFL-M88-17 (antibody, human IgG4, V domains shown)
VH: QVQLVQSGAEVKKPGASVKVSCKGSGYTFTDYTIHWVRQAPGQGLEWMGVISTYQGDASYNQKFKGRVTMTVDKSTSTVYMELSSLRSEDTAVYYCARFPDWDYAMDYWGQGTLVTVSS
VL: EIVMTQSPATLSVSPGERATLSCKASQSVDYDGDSYMNWYQQKPGQPPRLLIYAASNLESGIPARFSGSGSGTEFTLTISSLQSEDFAVYYCQQSRELPYTFGQGTKLEIK
notes: Humanized FL-M88
B4: humFL-M54-1 (antibody, human IgG4, V domains shown)
VH: QVQLVQSGAEVKKPGSSVKVSCKASGYTFTRFDISWVRQAPGQGLEWIGWIFPGDGSSQYNENFKGRATLTTDKSTSTAYMELSSLRSEDTAVYFCARSLISTAMFDHWGQGTLVTVSS
VL: EIVMTQSPATLSVSPGERATLSCRASKSVSTSDFSYIHWYQQKPGQPPRLLIFLASHLESGIPARFSGSGSGTEFTLTISSLQSEDFAVYYCQHSRELPRTFGQGTKVEIK
B5: humFL-M54-8 (antibody, human IgG4, V domains shown)
VH: QVQLVQSGAEVKKPGSSVKVSCKASGYTFTRFDISWVRQAPGQGLEWMGWIFPGDGSSQYNENFKGRATITTDKSTSTAYMELSSLRSEDTAVYFCARSLISTAMFDHWGQGTLVTVSS
VL: EIVMTQSPATLSVSPGERATLSCRASKSVSTSDFSYIHWYQQKPGQPPRLLIYLASHLESGIPARFSGSGSGTEFTLTISSLQSEDFAVYYCQHSRELPRTFGQGTKVEIK
B6: humFL-M54-2 (antibody, human IgG4, V domains shown)
VH: QVQLVQSGAEVKKPGSSVKVSCKASGYTFTRFDISWVRQAPGQGLEWMGWIFPGDGSSQYNENFKGRATLTTDKSTSTAYMELSSLRSEDTAVYFCARSLISTAMFDHWGQGTLVTVSS
VL: EIVMTQSPATLSVSPGERATLSCRASKSVSTSDFSYIHWYQQKPGQPPRLLIFLASHLESGIPARFSGSGSGTEFTLTISSLQSEDFAVYYCQHSRELPRTFGQGTKVEIK
B7: humFL-M54-5 (antibody, human IgG4, V domains shown)
VH: QVQLVQSGAEVKKPGSSVKVSCKASGYTFTRFDISWVRQAPGQGLEWMGWIFPGDGSSQYNENFKGRVTITADKSTSTAYMELSSLRSEDTAVYFCARSLISTAMFDHWGQGTLVTVSS
VL: EIVMTQSPATLSVSPGERATLSCRASKSVSTSDFSYIHWYQQKPGQPPRLLIFLASHLESGIPARFSGSGSGTEFTLTISSLQSEDFAVYYCQHSRELPRTFGQGTKVEIK
B8: humFL-M54-10 (antibody, human IgG4, V domains shown)
VH: QVQLVQSGAEVKKPGSSVKVSCKASGYTFTRFDISWVRQAPGQGLEWMGWIFPGDGSSQYNENFKGRVTITADKSTSTAYMELSSLRSEDTAVYFCARSLISTAMFDHWGQGTLVTVSS
VL: EIVMTQSPATLSVSPGERATLSCRASKSVSTSDFSYIHWYQQKPGQPPRLLIYLASHLESGIPARFSGSGSGTEFTLTISSLQSEDFAVYYCQHSRELPRTFGQGTKVEIK
B9: humFL-M54-12 (antibody, human IgG4, V domains shown)
VH: QVQLVQSGAEVKKPGSSVKVSCKASGYTFTRFDISWVRQAPGQGLEWMGWIFPGDGSSQYNENFKGRATLTTDKSTSTAYMELSSLRSEDTAVYFCARSLISTAMFDHWGQGTLVTVSS
VL: EIVMTQSPATLSVSPGERATLSCRASKSVSTSDFSYIHWYQQKPGQAPRLLIYLASHLESGIPARFSGSGSGTEFTLTISSLQSEDFAVYYCQHSRELPRTFGQGTKVEIK
B10: humFL-M54-14 (antibody, human IgG4, V domains shown)
VH: QVQLVQSGAEVKKPGSSVKVSCKASGYTFTRFDISWVRQAPGQGLEWMGWIFPGDGSSQYNENFKGRVTLTTDKSTSTAYMELSSLRSEDTAVYFCARSLISTAMFDHWGQGTLVTVSS
VL: EIVMTQSPATLSVSPGERATLSCRASKSVSTSDFSYIHWYQQKPGQAPRLLIYLASHLESGIPARFSGSGSGTEFTLTISSLQSEDFAVYYCQHSRELPRTFGQGTKVEIK
B11: humFL-M54-15 (antibody, human IgG4, V domains shown)
VH: QVQLVQSGAEVKKPGSSVKVSCKASGYTFTRFDISWVRQAPGQGLEWMGWIFPGDGSSQYNENFKGRVTITADKSTSTAYMELSSLRSEDTAVYFCARSLISTAMFDHWGQGTLVTVSS
VL: EIVMTQSPATLSVSPGERATLSCRASKSVSTSDFSYIHWYQQKPGQAPRLLIYLASHLESGIPARFSGSGSGTEFTLTISSLQSEDFAVYYCQHSRELPRTFGQGTKVEIK
B12: humFL-M54-3 (antibody, human IgG4, V domains shown)
VH: QVQLVQSGAEVKKPGSSVKVSCKASGYTFTRFDISWVRQAPGQGLEWMGWIFPGDGSSQYNENFKGRATITTDKSTSTAYMELSSLRSEDTAVYFCARSLISTAMFDHWGQGTLVTVSS
VL: EIVMTQSPATLSVSPGERATLSCRASKSVSTSDFSYIHWYQQKPGQPPRLLIFLASHLESGIPARFSGSGSGTEFTLTISSLQSEDFAVYYCQHSRELPRTFGQGTKVEIK
B13: humFL-M54-4 (antibody, human IgG4, V domains shown)
VH: QVQLVQSGAEVKKPGSSVKVSCKASGYTFTRFDISWVRQAPGQGLEWMGWIFPGDGSSQYNENFKGRVTLTTDKSTSTAYMELSSLRSEDTAVYFCARSLISTAMFDHWGQGTLVTVSS
VL: EIVMTQSPATLSVSPGERATLSCRASKSVSTSDFSYIHWYQQKPGQPPRLLIFLASHLESGIPARFSGSGSGTEFTLTISSLQSEDFAVYYCQHSRELPRTFGQGTKVEIK
B14: humFL-M54-6 (antibody, human IgG4, V domains shown)
VH: QVQLVQSGAEVKKPGSSVKVSCKASGYTFTRFDISWVRQAPGQGLEWIGWIFPGDGSSQYNENFKGRATLTTDKSTSTAYMELSSLRSEDTAVYFCARSLISTAMFDHWGQGTLVTVSS
VL: EIVMTQSPATLSVSPGERATLSCRASKSVSTSDFSYIHWYQQKPGQPPRLLIYLASHLESGIPARFSGSGSGTEFTLTISSLQSEDFAVYYCQHSRELPRTFGQGTKVEIK
B15: humFL-M54-7 (antibody, human IgG4, V domains shown)
VH: QVQLVQSGAEVKKPGSSVKVSCKASGYTFTRFDISWVRQAPGQGLEWMGWIFPGDGSSQYNENFKGRATLTTDKSTSTAYMELSSLRSEDTAVYFCARSLISTAMFDHWGQGTLVTVSS
VL: EIVMTQSPATLSVSPGERATLSCRASKSVSTSDFSYIHWYQQKPGQPPRLLIYLASHLESGIPARFSGSGSGTEFTLTISSLQSEDFAVYYCQHSRELPRTFGQGTKVEIK
B16: humFL-M54-9 (antibody, human IgG4, V domains shown)
VH: QVQLVQSGAEVKKPGSSVKVSCKASGYTFTRFDISWVRQAPGQGLEWMGWIFPGDGSSQYNENFKGRVTLTTDKSTSTAYMELSSLRSEDTAVYFCARSLISTAMFDHWGQGTLVTVSS
VL: EIVMTQSPATLSVSPGERATLSCRASKSVSTSDFSYIHWYQQKPGQPPRLLIYLASHLESGIPARFSGSGSGTEFTLTISSLQSEDFAVYYCQHSRELPRTFGQGTKVEIK
B17: humFL-M54-11 (antibody, human IgG4, V domains shown)
VH: QVQLVQSGAEVKKPGSSVKVSCKASGYTFTRFDISWVRQAPGQGLEWIGWIFPGDGSSQYNENFKGRATLTTDKSTSTAYMELSSLRSEDTAVYFCARSLISTAMFDHWGQGTLVTVSS
VL: EIVMTQSPATLSVSPGERATLSCRASKSVSTSDFSYIHWYQQKPGQAPRLLIYLASHLESGIPARFSGSGSGTEFTLTISSLQSEDFAVYYCQHSRELPRTFGQGTKVEIK
B18: humFL-M54-13 (antibody, human IgG4, V domains shown)
VH: QVQLVQSGAEVKKPGSSVKVSCKASGYTFTRFDISWVRQAPGQGLEWMGWIFPGDGSSQYNENFKGRATITTDKSTSTAYMELSSLRSEDTAVYFCARSLISTAMFDHWGQGTLVTVSS
VL: EIVMTQSPATLSVSPGERATLSCRASKSVSTSDFSYIHWYQQKPGQAPRLLIYLASHLESGIPARFSGSGSGTEFTLTISSLQSEDFAVYYCQHSRELPRTFGQGTKVEIK

biological target: T1, hFc-hFasL (fusion protein of human Fc fragment and human FasL extracellular region) (human, UniProt P48023 134-281); assay: cell-based or functional assay
T1 sequence: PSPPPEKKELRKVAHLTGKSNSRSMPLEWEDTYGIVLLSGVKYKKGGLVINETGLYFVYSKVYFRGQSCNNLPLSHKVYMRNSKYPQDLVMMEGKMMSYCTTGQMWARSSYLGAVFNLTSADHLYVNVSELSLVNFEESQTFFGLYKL

For B1, the “HepG2 IC50(nM), FasL antigen-induced cell apoptosis” value (“HepG2 IC50(nM)” for short) was 0.0333 nM.

B1 was tested, and the “Jurkat IC50(nM), FasL antigen-induced cell apoptosis” value (“Jurkat IC50(nM)” for short) was 0.0294 nM.

biological target: T1, hFc-hFasL (fusion protein of human Fc …); assay: ELISA, hFc-hFasL coated, antibody titrated, anti-human kappa-HRP (protocol of Example 3.2)

B1 and B2 are within 1.5-fold of each other in EC50: 0.288 nM for the first, 0.343 nM for the second.

Binder B3 has an EC50 of 0.329 nM.

biological target: T1, hFc-hFasL (fusion protein of human Fc …); assay: cell-based or functional assay; remark: another data set of the same source

B4 and B5 are within 1.5-fold of each other in “HepG2 IC50(nM)” value: 0.028 nM for the first, 0.025 nM for the second.

B6 and B7 are within 1.5-fold of each other in “HepG2 IC50(nM)” value: 0.031 nM for the first, 0.027 nM for the second.

B8 and B9 are within 1.5-fold of each other in “HepG2 IC50(nM)” value: 0.034 nM for the first, 0.032 nM for the second.

B10 and B11 are within 1.5-fold of each other in “HepG2 IC50(nM)” value: 0.023 nM for the first, 0.03 nM for the second.

B12 and B13 are within 1.5-fold of each other in “HepG2 IC50(nM)” value: 0.035 nM for the first, 0.03 nM for the second.

B14 and B15 are within 1.5-fold of each other in “HepG2 IC50(nM)” value: 0.031 nM for the first, 0.028 nM for the second.

B16 and B17 are within 1.5-fold of each other in “HepG2 IC50(nM)” value: 0.026 nM for the first, 0.028 nM for the second.

B18 was tested, and the “HepG2 IC50(nM)” value was 0.029 nM.

B4 and B5 are within 1.5-fold of each other in “Jurkat IC50(nM)” value: 0.035 nM for the first, 0.044 nM for the second.

Going from B6 to B7, the “Jurkat IC50(nM)” value rises from 0.028 nM to 0.052 nM (1.9-fold).

B8 and B9 are within 1.5-fold of each other in “Jurkat IC50(nM)” value: 0.017 nM for the first, 0.015 nM for the second.

First: B10
Second: B11
The “Jurkat IC50(nM)” value of the first is 2.5-fold higher: 0.038 nM for the first, 0.015 nM for the second.

B13 and B15 are within 1.5-fold of each other in “Jurkat IC50(nM)” value: 0.053 nM for the first, 0.059 nM for the second.

B16 and B17 are within 1.5-fold of each other in “Jurkat IC50(nM)” value: 0.035 nM for the first, 0.037 nM for the second.

For B18, the “Jurkat IC50(nM)” value was 0.028 nM.
